# From article PMC9499114, “The Magnetosome Protein, Mms6 from Magnetospirillum magneticum Strain AMB-1, Is a Lipid-Activated Ferric Reductase” (International Journal of Molecular Sciences, 2022)
# Tests used:
# [1] = substrate: Cc1cc2nc3c(=O)[nH]c(=O)nc-3n(C[C@H](O)[C@H](O)[C@H](O)COP(=O)(O)OP(=O)(O)OC[C@H]3O[C@@H](n4cnc5c(N)ncnc54)[C@H](O)[C@@H]3O)c2cc1C; experiment: ferrozine A562 ferric reductase assay; format: biochemical, Paramagnetospirillum magneticum; conditions: stimulation of ferric reductase activity, co-substrates NADH and ferric citrate, pH 7.5, varied: cofactor
# [2] = substrate: NC(=O)C1=CN([C@@H]2O[C@H](COP(=O)(O)OP(=O)(O)OC[C@H]3O[C@@H](n4cnc5c(N)ncnc54)[C@H](O)[C@@H]3O)[C@@H](O)[C@H]2O)C=CC1; experiment: ferrozine A562 ferric reductase assay; format: biochemical, Paramagnetospirillum magneticum; conditions: stimulation of ferric reductase activity, electron donor, FAD and ferric citrate present, pH 7.5
protein,measurement,setting,value
"Mms6 (Paramagnetospirillum magneticum AMB-1) (protein, micelles of about 13-15 nm) VGGTIWTGKGLGLGLGLGLGAWGPIILGVVGAGAVYAYMKSRDIESAQSDEEVELRDALA",Km,[1],25 µM
same,Km,[2],15 µM
